Results taken from publication PMC9482650, “Quantitative fragmentomics allow affinity mapping of interactomes” (Nature Communications, 2022).

T1: DLG3_3, Q92796
T1 sequence (Q92796 374-475, limits assumed, looked up): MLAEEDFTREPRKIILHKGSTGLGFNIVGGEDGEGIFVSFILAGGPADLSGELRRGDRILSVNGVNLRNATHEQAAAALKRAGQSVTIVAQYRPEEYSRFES

T2: MPDZ_5, O75970
T2 sequence (O75970 695-796, limits assumed, looked up): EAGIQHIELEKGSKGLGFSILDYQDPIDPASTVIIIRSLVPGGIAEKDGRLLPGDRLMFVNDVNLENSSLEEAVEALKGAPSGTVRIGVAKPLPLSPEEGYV

T3: APBA1_1, Q02410
T3 sequence (Q02410 651-752, limits assumed, looked up): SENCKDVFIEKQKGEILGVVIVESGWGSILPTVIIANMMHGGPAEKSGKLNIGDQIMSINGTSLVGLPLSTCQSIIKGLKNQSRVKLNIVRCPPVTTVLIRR

T4: MPP7, Q5T2T1
T4 sequence (Q5T2T1 134-230, limits assumed, looked up): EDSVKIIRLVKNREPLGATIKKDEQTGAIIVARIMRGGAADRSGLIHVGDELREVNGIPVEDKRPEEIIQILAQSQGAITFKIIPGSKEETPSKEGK

T5: TX1BP3, O14907
T5 sequence (O14907 10-122, limits assumed, looked up): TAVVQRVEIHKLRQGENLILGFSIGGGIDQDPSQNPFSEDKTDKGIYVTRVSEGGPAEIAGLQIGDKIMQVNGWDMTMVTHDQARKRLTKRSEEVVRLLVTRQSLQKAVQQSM

T6: APBA1_2, Q02410
T6 sequence (Q02410 742-832, limits assumed, looked up): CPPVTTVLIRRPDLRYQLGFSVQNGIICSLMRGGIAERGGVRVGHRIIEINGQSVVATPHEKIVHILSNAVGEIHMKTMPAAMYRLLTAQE

T7: PDZD2_2, O15018
T7 sequence (O15018 329-429, limits assumed, looked up): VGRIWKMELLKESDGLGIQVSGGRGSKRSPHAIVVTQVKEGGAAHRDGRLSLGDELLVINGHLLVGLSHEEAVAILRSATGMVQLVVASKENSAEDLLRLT

T8: NHERF3_1, Q5T2W1
T8 sequence (Q5T2W1 4-100, limits assumed, looked up): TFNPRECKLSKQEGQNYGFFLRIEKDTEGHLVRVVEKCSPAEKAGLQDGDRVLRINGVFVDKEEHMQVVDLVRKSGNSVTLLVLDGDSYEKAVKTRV

T9: MPDZ_10, O75970
T9 sequence (O75970 1624-1722, limits assumed, looked up): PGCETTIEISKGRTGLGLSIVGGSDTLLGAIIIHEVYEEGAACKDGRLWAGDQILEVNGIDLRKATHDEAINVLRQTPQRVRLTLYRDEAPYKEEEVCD

T10: ARHGAP21, Q5T5U3
T10 sequence (Q5T5U3 45-169, limits assumed, looked up): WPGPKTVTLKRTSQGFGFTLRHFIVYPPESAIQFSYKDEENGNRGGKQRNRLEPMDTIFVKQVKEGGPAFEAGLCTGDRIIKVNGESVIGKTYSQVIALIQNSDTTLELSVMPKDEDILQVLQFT

B1: JUP, P14923 (peptide)
chain: PYPTADHMLA
B2: FZD4, Q9ULV1 (peptide)
chain: KPGKGSETVV
B3: PLXNB1, O43157 (peptide)
chain: AAVENKVTDL

Target: T1, DLG3_3, Q92796
Test: holdup assay
Parameters: key: below the threshold = too weak to quantify, mostly under pKd 3.1 to 4
Conditions: plain residues with an end cap or a label only (N-terminal biotin on a linker: ado-ado)

| pKd | Binder |
| --- | --- |
| below the threshold | B1 |
| 4.02 | B2 |
| below the threshold | B3 |

Target: T2, MPDZ_5, O75970
Test: holdup assay
Parameters: key: below the threshold = too weak to quantify, mostly under pKd 3.1 to 4
Conditions: plain residues with an end cap or a label only (N-terminal biotin on a linker: ado-ado)

| pKd | Binder |
| --- | --- |
| below the threshold | B1 |
| below the threshold | B2 |
| below the threshold | B3 |

Target: SCRIB_2, Q14160
Sequence (Q14160 857-960): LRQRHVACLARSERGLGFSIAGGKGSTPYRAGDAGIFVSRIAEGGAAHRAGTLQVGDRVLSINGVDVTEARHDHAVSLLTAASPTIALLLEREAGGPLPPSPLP
Test: holdup assay
Parameters: key: below the threshold = too weak to quantify, mostly under pKd 3.1 to 4
Conditions: plain residues with an end cap or a label only (N-terminal biotin on a linker: ado-ado)

| pKd | Binder |
| --- | --- |
| below the threshold | B1 |
| 3.83 | B2 |
| 3.52 | B3 |

Target: NHERF2_2, Q15599
Sequence (Q15599 142-238): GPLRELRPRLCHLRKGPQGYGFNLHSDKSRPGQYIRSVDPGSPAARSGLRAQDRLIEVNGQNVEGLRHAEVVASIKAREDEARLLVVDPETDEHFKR
Test: holdup assay
Parameters: key: below the threshold = too weak to quantify, mostly under pKd 3.1 to 4
Conditions: plain residues with an end cap or a label only (N-terminal biotin on a linker: ado-ado)

| pKd | Binder |
| --- | --- |
| below the threshold | B1 |
| below the threshold | B2 |
| 4.07 | B3 |

Target: MAGI1_1, Q96QZ7
Sequence (Q96QZ7 1-106): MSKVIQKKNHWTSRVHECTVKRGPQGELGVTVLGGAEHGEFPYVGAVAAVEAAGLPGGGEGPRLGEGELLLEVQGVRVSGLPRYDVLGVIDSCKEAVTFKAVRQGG
Test: holdup assay
Parameters: key: below the threshold = too weak to quantify, mostly under pKd 3.1 to 4
Conditions: plain residues with an end cap or a label only (N-terminal biotin on a linker: ado-ado)

| pKd | Binder |
| --- | --- |
| below the threshold | B1 |
| below the threshold | B2 |
| below the threshold | B3 |

Target: T3, APBA1_1, Q02410
Test: holdup assay
Parameters: key: below the threshold = too weak to quantify, mostly under pKd 3.1 to 4
Conditions: plain residues with an end cap or a label only (N-terminal biotin on a linker: ado-ado)

| pKd | Binder |
| --- | --- |
| below the threshold | B1 |
| below the threshold | B2 |
| below the threshold | B3 |

Target: LDB3, O75112
Sequence (O75112 1-94): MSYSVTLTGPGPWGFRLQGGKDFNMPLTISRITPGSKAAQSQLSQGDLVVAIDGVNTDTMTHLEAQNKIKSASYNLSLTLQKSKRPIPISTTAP
Test: holdup assay
Parameters: key: below the threshold = too weak to quantify, mostly under pKd 3.1 to 4
Conditions: plain residues with an end cap or a label only (N-terminal biotin on a linker: ado-ado)

| pKd | Binder |
| --- | --- |
| below the threshold | B1 |
| below the threshold | B2 |
| below the threshold | B3 |

Target: GRID2IP_2, A4D2P6
Sequence (A4D2P6 272-370): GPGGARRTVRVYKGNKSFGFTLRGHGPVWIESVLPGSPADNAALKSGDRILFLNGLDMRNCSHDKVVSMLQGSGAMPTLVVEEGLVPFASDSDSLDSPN
Test: holdup assay
Parameters: key: below the threshold = too weak to quantify, mostly under pKd 3.1 to 4
Conditions: plain residues with an end cap or a label only (N-terminal biotin on a linker: ado-ado)

| pKd | Binder |
| --- | --- |
| below the threshold | B1 |
| below the threshold | B2 |
| 4.56 | B3 |

Target: NHERF4_2, Q86UT5
Sequence (Q86UT5 220-308): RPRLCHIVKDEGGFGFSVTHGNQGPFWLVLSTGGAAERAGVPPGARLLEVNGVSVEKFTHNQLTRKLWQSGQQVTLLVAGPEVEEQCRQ
Test: holdup assay
Parameters: key: below the threshold = too weak to quantify, mostly under pKd 3.1 to 4
Conditions: plain residues with an end cap or a label only (N-terminal biotin on a linker: ado-ado)

| pKd | Binder |
| --- | --- |
| below the threshold | B1 |
| below the threshold | B2 |
| below the threshold | B3 |

Target: MAST2, Q6P0Q8
Sequence (Q6P0Q8 1099-1202): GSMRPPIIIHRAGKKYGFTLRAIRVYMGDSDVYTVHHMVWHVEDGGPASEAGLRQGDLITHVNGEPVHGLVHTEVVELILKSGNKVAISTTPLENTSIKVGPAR
Test: holdup assay
Parameters: key: below the threshold = too weak to quantify, mostly under pKd 3.1 to 4
Conditions: plain residues with an end cap or a label only (N-terminal biotin on a linker: ado-ado)

| pKd | Binder |
| --- | --- |
| below the threshold | B1 |
| 4.91 | B2 |
| 5.61 | B3 |

Target: T4, MPP7, Q5T2T1
Test: holdup assay
Parameters: key: below the threshold = too weak to quantify, mostly under pKd 3.1 to 4
Conditions: plain residues with an end cap or a label only (N-terminal biotin on a linker: ado-ado)

| pKd | Binder |
| --- | --- |
| below the threshold | B1 |
| below the threshold | B2 |
| below the threshold | B3 |

Target: T5, TX1BP3, O14907
Test: holdup assay
Parameters: key: below the threshold = too weak to quantify, mostly under pKd 3.1 to 4
Conditions: plain residues with an end cap or a label only (N-terminal biotin on a linker: ado-ado)

| pKd | Binder |
| --- | --- |
| 4.01 | B1 |
| below the threshold | B2 |
| 4.77 | B3 |

Target: GRIP2_3, Q9C0E4
Sequence (Q9C0E4 238-339): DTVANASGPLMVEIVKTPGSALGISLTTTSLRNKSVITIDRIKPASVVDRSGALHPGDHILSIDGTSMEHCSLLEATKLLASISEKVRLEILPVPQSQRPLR
Test: holdup assay
Parameters: key: below the threshold = too weak to quantify, mostly under pKd 3.1 to 4
Conditions: plain residues with an end cap or a label only (N-terminal biotin on a linker: ado-ado)

| pKd | Binder |
| --- | --- |
| below the threshold | B1 |
| below the threshold | B2 |
| below the threshold | B3 |

Target: DLG4_1, P78352
Sequence (P78352 62-152): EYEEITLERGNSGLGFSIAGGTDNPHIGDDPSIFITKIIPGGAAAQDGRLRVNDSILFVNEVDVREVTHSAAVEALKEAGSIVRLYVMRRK
Test: holdup assay
Parameters: key: below the threshold = too weak to quantify, mostly under pKd 3.1 to 4
Conditions: plain residues with an end cap or a label only (N-terminal biotin on a linker: ado-ado)

| pKd | Binder |
| --- | --- |
| below the threshold | B1 |
| 4.85 | B2 |
| 3.68 | B3 |

Target: GRIP2_5, Q9C0E4
Sequence (Q9C0E4 544-642): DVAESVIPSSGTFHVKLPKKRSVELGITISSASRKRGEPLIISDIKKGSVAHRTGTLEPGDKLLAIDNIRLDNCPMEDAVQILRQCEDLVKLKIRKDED
Test: holdup assay
Parameters: key: below the threshold = too weak to quantify, mostly under pKd 3.1 to 4
Conditions: plain residues with an end cap or a label only (N-terminal biotin on a linker: ado-ado)

| pKd | Binder |
| --- | --- |
| below the threshold | B1 |
| below the threshold | B2 |
| below the threshold | B3 |

Target: PICK1, Q9NRD5
Sequence (Q9NRD5 17-115): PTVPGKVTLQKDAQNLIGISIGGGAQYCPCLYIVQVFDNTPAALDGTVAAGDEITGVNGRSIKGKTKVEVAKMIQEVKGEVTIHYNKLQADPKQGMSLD
Test: holdup assay
Parameters: key: below the threshold = too weak to quantify, mostly under pKd 3.1 to 4
Conditions: plain residues with an end cap or a label only (N-terminal biotin on a linker: ado-ado)

| pKd | Binder |
| --- | --- |
| below the threshold | B1 |
| below the threshold | B2 |
| below the threshold | B3 |

Target: NHERF4_4, Q86UT5
Sequence (Q86UT5 464-550): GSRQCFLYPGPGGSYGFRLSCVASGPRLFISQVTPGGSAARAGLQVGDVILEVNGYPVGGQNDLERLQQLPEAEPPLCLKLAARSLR
Test: holdup assay
Parameters: key: below the threshold = too weak to quantify, mostly under pKd 3.1 to 4
Conditions: plain residues with an end cap or a label only (N-terminal biotin on a linker: ado-ado)

| pKd | Binder |
| --- | --- |
| below the threshold | B1 |
| below the threshold | B2 |
| below the threshold | B3 |

Target: IL16_1, Q14005
Sequence (Q14005 210-306): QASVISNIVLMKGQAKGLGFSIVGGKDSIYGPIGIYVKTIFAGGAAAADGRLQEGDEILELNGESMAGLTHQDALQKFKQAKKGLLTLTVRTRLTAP
Test: holdup assay
Parameters: key: below the threshold = too weak to quantify, mostly under pKd 3.1 to 4
Conditions: plain residues with an end cap or a label only (N-terminal biotin on a linker: ado-ado)

| pKd | Binder |
| --- | --- |
| below the threshold | B1 |
| 3.61 | B2 |
| below the threshold | B3 |

Target: NOS1, P29475
Sequence (P29475 9-101): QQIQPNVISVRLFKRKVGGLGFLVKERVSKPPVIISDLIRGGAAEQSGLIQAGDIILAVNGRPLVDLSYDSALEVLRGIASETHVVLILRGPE
Test: holdup assay
Parameters: key: below the threshold = too weak to quantify, mostly under pKd 3.1 to 4
Conditions: plain residues with an end cap or a label only (N-terminal biotin on a linker: ado-ado)

| pKd | Binder |
| --- | --- |
| below the threshold | B1 |
| 3.81 | B2 |
| below the threshold | B3 |

Target: T6, APBA1_2, Q02410
Test: holdup assay
Parameters: key: below the threshold = too weak to quantify, mostly under pKd 3.1 to 4
Conditions: plain residues with an end cap or a label only (N-terminal biotin on a linker: ado-ado)

| pKd | Binder |
| --- | --- |
| below the threshold | B1 |
| 3.64 | B2 |
| 4.23 | B3 |

Target: MAGI2_3, Q86UL8
Sequence (Q86UL8 600-682): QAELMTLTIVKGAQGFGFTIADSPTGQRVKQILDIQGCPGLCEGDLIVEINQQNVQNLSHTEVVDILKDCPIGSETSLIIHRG
Test: holdup assay
Parameters: key: below the threshold = too weak to quantify, mostly under pKd 3.1 to 4
Conditions: plain residues with an end cap or a label only (N-terminal biotin on a linker: ado-ado)

| pKd | Binder |
| --- | --- |
| below the threshold | B1 |
| below the threshold | B2 |
| below the threshold | B3 |

Target: T7, PDZD2_2, O15018
Test: holdup assay
Parameters: key: below the threshold = too weak to quantify, mostly under pKd 3.1 to 4
Conditions: plain residues with an end cap or a label only (N-terminal biotin on a linker: ado-ado)

| pKd | Binder |
| --- | --- |
| below the threshold | B1 |
| 3.76 | B2 |
| 4.65 | B3 |

Target: PARD3_3, Q8TEW0
Sequence (Q8TEW0 582-685): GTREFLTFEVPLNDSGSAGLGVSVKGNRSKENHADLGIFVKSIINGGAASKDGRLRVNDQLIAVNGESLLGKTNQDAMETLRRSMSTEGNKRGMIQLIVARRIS
Test: holdup assay
Parameters: key: below the threshold = too weak to quantify, mostly under pKd 3.1 to 4
Conditions: plain residues with an end cap or a label only (N-terminal biotin on a linker: ado-ado)

| pKd | Binder |
| --- | --- |
| below the threshold | B1 |
| below the threshold | B2 |
| below the threshold | B3 |

Target: T8, NHERF3_1, Q5T2W1
Test: holdup assay
Parameters: key: below the threshold = too weak to quantify, mostly under pKd 3.1 to 4
Conditions: plain residues with an end cap or a label only (N-terminal biotin on a linker: ado-ado)

| pKd | Binder |
| --- | --- |
| below the threshold | B1 |
| below the threshold | B2 |
| below the threshold | B3 |

Target: T9, MPDZ_10, O75970
Test: holdup assay
Parameters: key: below the threshold = too weak to quantify, mostly under pKd 3.1 to 4
Conditions: plain residues with an end cap or a label only (N-terminal biotin on a linker: ado-ado)

| pKd | Binder |
| --- | --- |
| below the threshold | B1 |
| below the threshold | B2 |
| below the threshold | B3 |

Target: T10, ARHGAP21, Q5T5U3
Test: holdup assay
Parameters: key: below the threshold = too weak to quantify, mostly under pKd 3.1 to 4
Conditions: plain residues with an end cap or a label only (N-terminal biotin on a linker: ado-ado)

| pKd | Binder |
| --- | --- |
| below the threshold | B1 |
| 3.93 | B2 |
| 4.07 | B3 |

Target: Inadl_4, Q8NI35
Sequence (Q8NI35 547-651): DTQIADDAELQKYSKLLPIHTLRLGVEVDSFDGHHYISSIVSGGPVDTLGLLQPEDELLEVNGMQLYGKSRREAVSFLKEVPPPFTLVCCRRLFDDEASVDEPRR
Test: holdup assay
Parameters: key: below the threshold = too weak to quantify, mostly under pKd 3.1 to 4
Conditions: plain residues with an end cap or a label only (N-terminal biotin on a linker: ado-ado)

| pKd | Binder |
| --- | --- |
| below the threshold | B1 |
| below the threshold | B2 |
| below the threshold | B3 |
